Reference: patent US20210340531A1 (YALE UNIVERSITY, published 2021)
Each block holds one binder with its values, some of them ahead of it.

How the values were obtained:
[1] = biological target: the molecule itself; assay: in vitro filament assembly, negative-stain electron microscopy
Procedure: Filament assembly was terminated after 10 min by adding stop buffer (0.2% glutaraldehyde, 20 mM KCl, 0.7 mM NaHPO). Filament samples were immediately applied to a Carbon type B-400 mesh-Copper grid charged with Pelco easiGlow (Ted Pella, Redding, Calif.) at 25 mA for 30s, and negatively stained using 2% aqueous uranyl acetate. Images were captured with a Talos L120C Electron Microscope from FEI (Hillsboro, Oreg.).
Protein production and purification: Full-length wild-type K1, K10, K8, K18, and vimentin constructs in pET-21a(+) or pET-24a(+) based plasmids are used. K1, K8, and vimentin knob mutants (both individual [FA, LA] and double [FLAA] residue mutants) are also used. K10 is expressed in E. coli BL21(DE3)pLysS cells at 20° C. for 72 hours using an autoinduction method. Expression of all other keratins and vimentins occur in E. coli BL21(DE3) cells using LB at 37° C. for 3 hours with 1 mM IPTG for induction. […]
Electron microscopy: Filament samples are immediately applied to a Carbon type B-400 mesh-Copper grid charged with Pelco easiGlow (Ted Pella, Redding, Calif.) at 25 mA for 30s, and negatively stained using 2% aqueous uranyl acetate. […] Images are analyzed for the number, length, width, and shape of filamentous structures formed at each timepoint to evaluate the dynamics of IF assembly in vitro for both wild-type and knob mutant proteins.

gel filtration = biological target: the molecule itself; assay: gel filtration
keratin 10 helix 1B [2] = biological target: T1, keratin 10 helix 1B (human, UniProt P13645 195-296); assay: K1 knob mutants with K10-1B
T1 construct: Single chain of the K1/K10-1B complex; His6 tag removed with thrombin before gel filtration, light scattering and crystallization; also called K10-1B; K10

keratin 10 helix 1B [3] = biological target: T1, keratin 10 helix 1B; assay: X-ray crystal structure, asymmetric unit
Procedure: The final model of the K1^S233L/K10-1B mutant crystal asymmetric unit contained one K1-1B S233L and one K10-1B molecules. The final Ramachandran statistics were: residues in favorable regions, 99%; in allowed regions, 1%; in outlier regions, 0%. Electrostatics were calculated using PDB2PQR and Adaptive Poisson-Boltzmann Software (APBS). Structural analyses were performed using Coot, UCSF Chimera (Resource for Biocomputing, Visualization, and Informatics, University of California, San Francisco), WHAT IF, ESBRI, and PDBePISA (The European Bioinformatics Institute, European Molecular Biology Laboratory, UK). Figures were prepared using UCSF Chimera and Adobe Illustrator. Atomic coordinates and structure factors have been deposited in the Protein Data Bank under the accession code TBD.
Mutant K1/K10-1B (22.8 mg/ml) in 100 mM Tris-HCl buffer (pH 7.4) containing 200 mM NaCl was crystallized using 100 mM Tris buffer (pH 8.5) containing 1.5M ammonium sulfate and 12% glycerol. Crystals were soaked 1-3 min in a cryoprotectant solution containing 27% glycerol in mother liquor prior to flash-freezing in liquid nitrogen. One native data set on a single crystal was collected (λ=0.9795 Å). The native crystal belonged to the hexagonal space group P6 22 (cell dimensions: a=93.29 Å, b=93.29 Å, c=124.74 Å, α=β=90, γ=120). […]

B1: full-length wild-type K8/K18 heterodimeric complex (other, human)
chain 1: MSIRVTQKSYKVSTSGPRAFSSRSYTSGPGSRISSSSFSRVGSSNFRGGLGGGYGGASGMGGITAVTVNQSLLSPLVLEVDPNIQAVRTQEKEQIKTLNNKFASFIDKVRFLEQQNKMLETKWSLLQQQKTARSNMDNMFESYINNLRRQLETLGQEKLKLEAELGNMQGLVEDFKNKYEDEINKRTEMENEFVLIKKDVDEAYMNKVELESRLEGLTDEINFLRQLYEEEIRELQSQISDTSVVLSMDNSRSLDMDSIIAEVKAQYEDIANRSRAEAESMYQIKYEELQSLAGKHGDDLRRTKTEISEMNRNISRLQAEIEGLKGQRASLEAAIADAEQRGELAIKDANAKLSELEAALQRAKQDMARQLREYQELMNVKLALDIEIATYRKLLEGEESRLESGMQNMSIHTKTTSGYAGGLSSAYGGLTSPGLSYSLGSSFGSGAGSSSFSRTSSSRAVVVKKIETRDGKLVSESSDVLPK
chain 2: MSFTTRSTFSTNYRSLGSVQAPSYGARPVSSAASVYAGAGGSGSRISVSRSTSFRGGMGSGGLATGIAGGLAGMGGIQNEKETMQSLNDRLASYLDRVRSLETENRRLESKIREHLEKKGPQVRDWSHYFKIIEDLRAQIFANTVDNARIVLQIDNARLAADDFRVKYETELAMRQSVENDIHGLRKVIDDTNITRLQLETEIEALKEELLFMKKNHEEEVKGLQAQIASSGLTVEVDAPKSQDLAKIMADIRAQYDELARKNREELDKYWSQQIEESTTVVTTQSAEVGAAETTLTELRRTVQSLEIDLDSMRNLKASLENSLREVEARYALQMEQLNGILLHLESELAQTRAEGQRQAQEYEALLNIKVKLEAEIATYRRLLEDGEDFNLGDALDSSNSMQTIQKTTTRRIVDGKVVSETNDTKVLRH
notes: also called K8/18
binding result [1]: binds

B2: full-length wild-type K1/K10 heterodimeric complex (other)
chain 1: MSRQFSSRSGYRSGGGFSSGSAGIINYQRRTTSSSTRRSGGGGGRFSSCGGGGGSFGAGGGFGSRSLVNLGGSKSISISVARGGGRGSGFGGGYGGGGFGGGGFGGGGFGGGGIGGGGFGGFGSGGGGFGGGGFGGGGYGGGYGPVCPPGGIQEVTINQSLLQPLNVEIDPEIQKVKSREREQIKSLNNQFASFIDKVRFLEQQNQVLQTKWELLQQVDTSTRTHNLEPYFESFINNLRRRVDQLKSDQSRLDSELKNMQDMVEDYRNKYEDEINKRTNAENEFVTIKKDVDGAYMTKVDLQAKLDNLQQEIDFLTALYQAELSQMQTQISETNVILSMDNNRSLDLDSIIAEVKAQNEDIAQKSKAEAESLYQSKYEELQITAGRHGDSVRNSKIEISELNRVIQRLRSEIDNVKKQISNLQQSISDAEQRGENALKDAKNKLNDLEDALQQAKEDLARLLRDYQELMNTKLALDLEIATYRTLLEGEESRMSGECAPNVSVSVSTSHTTISGGGSRGGGGGGYGSGGSSYGSGGGSYGSGGGGGGGRGSYGSGGSSYGSGGGSYGSGGGGGGHGSYGSGSSSGGYRGGSGGGGGGSSGGRGSGGGSSGGSIGGRGSSSGGVKSSGGSSSVRFVSTTYSGVTR
chain 2: MSVRYSSSKHYSSSRSGGGGGGGGCGGGGGVSSLRISSSKGSLGGGFSSGGFSGGSFSRGSSGGGCFGGSSGGYGGLGGFGGGSFRGSYGSSSFGGSYGGIFGGGSFGGGSFGGGSFGGGGFGGGGFGGGFGGGFGGDGGLLSGNEKVTMQNLNDRLASYLDKVRALEESNYELEGKIKEWYEKHGNSHQGEPRDYSKYYKTIDDLKNQILNLTTDNANILLQIDNARLAADDFRLKYENEVALRQSVEADINGLRRVLDELTLTKADLEMQIESLTEELAYLKKNHEEEMKDLRNVSTGDVNVEMNAAPGVDLTQLLNNMRSQYEQLAEQNRKDAEAWFNEKSKELTTEIDNNIEQISSYKSEITELRRNVQALEIELQSQLALKQSLEASLAETEGRYCVQLSQIQAQISALEEQLQQIRAETECQNTEYQQLLDIKIRLENEIQTYRSLLEGEGSSGGGGRGGGSFGGGYGGGSSGGGSSGGGHGGGHGGSSGGGYGGGSSGGGSSGGGYGGGSSSGGHGGSSSGGYGGGSSGGGGGGYGGGSSGGGSSSGGGYGGGSSSGGHKSSSSGSVGESSSKGPRY
notes: also called WT K1/K10
binding result [1]: binds

B3: K1-L318A/10-1B mutant heterodimer (other)
chain 1: NLEPYFESFINNLRRRVDQLKSDQSRLDSELKNMQDMVEDYRNKYEDEINKRTNAENEFVTIKKDVDGAYMTKVDLQAKLDNLQQEIDFLTAAYQAELSQMQTQIS
chain 2: not shown
notes: also called L318A^K1 (LA); K1-L318A/K10-1B
binding result (gel filtration): binds

B4: K1 F314A+L318A (FLAA)/K10-1B double mutant heterodimer (other)
chain 1: NLEPYFESFINNLRRRVDQLKSDQSRLDSELKNMQDMVEDYRNKYEDEINKRTNAENEFVTIKKDVDGAYMTKVDLQAKLDNLQQEIDALTAAYQAELSQMQTQIS
chain 2: not shown
notes: also called F314A^K1+L318A^K1
binding result (gel filtration): no binding

B5: K1-F314A/10-1B mutant heterodimer (other)
chain 1: NLEPYFESFINNLRRRVDQLKSDQSRLDSELKNMQDMVEDYRNKYEDEINKRTNAENEFVTIKKDVDGAYMTKVDLQAKLDNLQQEIDALTALYQAELSQMQTQIS
chain 2: not shown
notes: also called F314A^K1 (FA); K1-F314A/K10-1B
binding result (gel filtration): no binding

binding result (keratin 10 helix 1B [2]): binds
B6: keratin 1 helix 1B L318A (other)
chain: NLEPYFESFINNLRRRVDQLKSDQSRLDSELKNMQDMVEDYRNKYEDEINKRTNAENEFVTIKKDVDGAYMTKVDLQAKLDNLQQEIDFLTAAYQAELSQMQTQIS
notes: Single chain; also called K1-1B mutant L318A; LA

binding result (keratin 10 helix 1B [3]): binds
B7: keratin 1 helix 1B S233L (other)
chain: NLEPYFELFINNLRRRVDQLKSDQSRLDSELKNMQDMVEDYRNKYEDEINKRTNAENEFVTIKKDVDGAYMTKVDLQAKLDNLQQEIDFLTALYQAELSQMQTQIS
notes: Single chain of the mutant complex; also called K1^S233L-1B; K1-1B S233L

binding result (keratin 10 helix 1B [2]): binds
B8: keratin 1 helix 1B F314A+L318A (other)
chain: NLEPYFESFINNLRRRVDQLKSDQSRLDSELKNMQDMVEDYRNKYEDEINKRTNAENEFVTIKKDVDGAYMTKVDLQAKLDNLQQEIDALTAAYQAELSQMQTQIS
notes: Single chain; also called K1-1B mutant F314A+L318A; FLAA
